From the supplement of paper PMC9233669
Fewer inactive variants are shown than the library holds.

Tests used:
biotinyl-Phe-oxazolone = assay: self-aminoacylation, catalytic enhancement (BFO) (fold over background); higher = more active; k-Seq, kA / k0A0; sequences stand for … in GGGAAUGGAUCCACAUCUACGAAUUC…UUCACUGCAGACUUGACGAAGCUG
Outline: (§1)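 Working in 50 μL HEPES/NaCl/KCl/MgCl2/CaCl2 buffer with 5% acetonitrile at pH 6.9–7.0, mutagenized RNA pools (0.43 μM; 21-nt variable region) were reacted with 2–1250 μM of each biotinyl-aminoacyl-oxazolone for 90 minutes at room temperature. Streptavidin capture followed, with quantification by triplicate qPCR and Illumina sequencing. Catalytic enhancement is reported as median kA over the uncatalyzed rate, the low-activity peak of a bimodal Gaussian fit to the data.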

biotinyl-Met-oxazolone = assay: self-aminoacylation, catalytic enhancement (BMO) (fold over background); higher = more active; k-Seq, kA / k0A0; sequences stand for … in GGGAAUGGAUCCACAUCUACGAAUUC…UUCACUGCAGACUUGACGAAGCUG
Outline: as §1

biotinyl-Trp-oxazolone = assay: self-aminoacylation, catalytic enhancement (BWO) (fold over background); higher = more active; k-Seq, kA / k0A0; sequences stand for … in GGGAAUGGAUCCACAUCUACGAAUUC…UUCACUGCAGACUUGACGAAGCUG
Outline: as §1

biotinyl-Leu-oxazolone = assay: self-aminoacylation, catalytic enhancement (BLO) (fold over background); higher = more active; k-Seq, kA / k0A0; sequences stand for … in GGGAAUGGAUCCACAUCUACGAAUUC…UUCACUGCAGACUUGACGAAGCUG
Outline: as §1

## AACUUUGCUAAUAGUAGCAAG [Fam3.1 aminoacylation ribozyme variant]
biotinyl-Phe-oxazolone
  self-aminoacylation: 2.06
biotinyl-Met-oxazolone
  self-aminoacylation: 2.2
biotinyl-Trp-oxazolone
  self-aminoacylation: 2.42

## AAGCUGGCUAAUAGUCGCAAG [Fam3.1 aminoacylation ribozyme variant]
biotinyl-Phe-oxazolone
  self-aminoacylation: 3.61
biotinyl-Leu-oxazolone
  self-aminoacylation: 2.68
biotinyl-Trp-oxazolone
  self-aminoacylation: 2.08

## AAGCUUGCUAAUAGUCGCAUG [Fam3.1 aminoacylation ribozyme variant]
biotinyl-Phe-oxazolone
  self-aminoacylation: 3.98
biotinyl-Leu-oxazolone
  self-aminoacylation: 2.07

## AAGCUUGCUAUUAGUCGCAAG [Fam3.1 aminoacylation ribozyme variant]
biotinyl-Phe-oxazolone
  self-aminoacylation: 2.62
biotinyl-Met-oxazolone
  self-aminoacylation: 2.23
biotinyl-Leu-oxazolone
  self-aminoacylation: 2.48

## AAGUCUGCUAAUAGUCGUAAG [Fam3.1 aminoacylation ribozyme variant]
biotinyl-Phe-oxazolone
  self-aminoacylation: 49.6
biotinyl-Met-oxazolone
  self-aminoacylation: 2.5
biotinyl-Trp-oxazolone
  self-aminoacylation: 9.94

## AAGUUAGCUAAUAGUCGCGAG [Fam3.1 aminoacylation ribozyme variant]
biotinyl-Phe-oxazolone
  self-aminoacylation: 2.29
biotinyl-Leu-oxazolone
  self-aminoacylation: 2.09
biotinyl-Trp-oxazolone
  self-aminoacylation: 2.24

## AAGUUCGCUAAUAGUCGCAAC [Fam3.1 aminoacylation ribozyme variant]
biotinyl-Phe-oxazolone
  self-aminoacylation: 2.12
biotinyl-Met-oxazolone
  self-aminoacylation: 2.32
biotinyl-Trp-oxazolone
  self-aminoacylation: 2.33

## ACACACUUCAAGCCAUCGGUC [Fam1B.1 aminoacylation ribozyme variant]
biotinyl-Phe-oxazolone
  self-aminoacylation: 2.41
biotinyl-Leu-oxazolone
  self-aminoacylation: 2.11

## ACACGCUUCAAGCAAUCGGUC [Fam1B.1 aminoacylation ribozyme variant]
biotinyl-Phe-oxazolone
  self-aminoacylation: 63.7
biotinyl-Leu-oxazolone
  self-aminoacylation: 2.68
biotinyl-Trp-oxazolone
  self-aminoacylation: 38.8

## ACUCACCUAGGUCAUCGGGUC [Fam2.2 aminoacylation ribozyme variant]
biotinyl-Phe-oxazolone
  self-aminoacylation: 7.01
biotinyl-Met-oxazolone
  self-aminoacylation: 2.24

## AGGGUUGCUAAUAGUCGCAAG [Fam3.1 aminoacylation ribozyme variant]
biotinyl-Phe-oxazolone
  self-aminoacylation: 4.28
biotinyl-Met-oxazolone
  self-aminoacylation: 2.18

## AGUCACCUAGGUCAUCUGGUG [Fam2.2 aminoacylation ribozyme variant]
biotinyl-Phe-oxazolone
  self-aminoacylation: 15.2
biotinyl-Met-oxazolone
  self-aminoacylation: 2.31
biotinyl-Leu-oxazolone
  self-aminoacylation: 2.59
biotinyl-Trp-oxazolone
  self-aminoacylation: 2.38

## AUAACCCUGGUCAUCGAGUAA [Fam2.1 aminoacylation ribozyme variant]
biotinyl-Phe-oxazolone
  self-aminoacylation: 7.47
biotinyl-Met-oxazolone
  self-aminoacylation: 3.64
biotinyl-Leu-oxazolone
  self-aminoacylation: 3.46
biotinyl-Trp-oxazolone
  self-aminoacylation: 2.47

## AUACACCUAGGUCAACGGGUG [Fam2.2 aminoacylation ribozyme variant]
biotinyl-Phe-oxazolone
  self-aminoacylation: 6.06
biotinyl-Met-oxazolone
  self-aminoacylation: 2.09
biotinyl-Leu-oxazolone
  self-aminoacylation: 2.79
biotinyl-Trp-oxazolone
  self-aminoacylation: 2.02

## AUACACCUAGGUCGUCGGGUG [Fam2.2 aminoacylation ribozyme variant]
biotinyl-Phe-oxazolone
  self-aminoacylation: 6.55
biotinyl-Leu-oxazolone
  self-aminoacylation: 2.55

## AUGACCCUGGUCAUCGAGGGA [Fam2.1 aminoacylation ribozyme variant]
biotinyl-Phe-oxazolone
  self-aminoacylation: 2.82
biotinyl-Met-oxazolone
  self-aminoacylation: 3.65
biotinyl-Leu-oxazolone
  self-aminoacylation: 3.03

## AUUAACCUAGGUCAUCUGGUG [Fam2.2 aminoacylation ribozyme variant]
biotinyl-Phe-oxazolone
  self-aminoacylation: 13.6
biotinyl-Met-oxazolone
  self-aminoacylation: 2.59
biotinyl-Leu-oxazolone
  self-aminoacylation: 3.34
biotinyl-Trp-oxazolone
  self-aminoacylation: 2.7

## AUUACCCAGGCCAUCGAGUGA [Fam2.1 aminoacylation ribozyme variant]
biotinyl-Phe-oxazolone
  self-aminoacylation: 11
biotinyl-Met-oxazolone
  self-aminoacylation: 2.52
biotinyl-Leu-oxazolone
  self-aminoacylation: 2.69

## AUUACCCUGGUAAUCGUGUGA [Fam2.1 aminoacylation ribozyme variant]
biotinyl-Phe-oxazolone
  self-aminoacylation: 22.2
biotinyl-Met-oxazolone
  self-aminoacylation: 3.48
biotinyl-Leu-oxazolone
  self-aminoacylation: 3.58
biotinyl-Trp-oxazolone
  self-aminoacylation: 4.1

## AUUACCCUGGUCAUUGAGUGG [Fam2.1 aminoacylation ribozyme variant]
biotinyl-Phe-oxazolone
  self-aminoacylation: 2.08
biotinyl-Met-oxazolone
  self-aminoacylation: 2.54
biotinyl-Leu-oxazolone
  self-aminoacylation: 2.66
biotinyl-Trp-oxazolone
  self-aminoacylation: 3.09

## AUUACCCUGGUCCUCGUGUGA [Fam2.1 aminoacylation ribozyme variant]
biotinyl-Phe-oxazolone
  self-aminoacylation: 14
biotinyl-Met-oxazolone
  self-aminoacylation: 2.89
biotinyl-Leu-oxazolone
  self-aminoacylation: 2.88
biotinyl-Trp-oxazolone
  self-aminoacylation: 2.73

## AUUCACAUAGGUCAUCGAGUG [Fam2.2 aminoacylation ribozyme variant]
biotinyl-Phe-oxazolone
  self-aminoacylation: 3.08
biotinyl-Leu-oxazolone
  self-aminoacylation: 2.69
biotinyl-Trp-oxazolone
  self-aminoacylation: 2.2

## AUUCACCGAGGUCAUCAGGUG [Fam2.2 aminoacylation ribozyme variant]
biotinyl-Phe-oxazolone
  self-aminoacylation: 2.42
biotinyl-Leu-oxazolone
  self-aminoacylation: 2.03

## AUUCACCUAAGUCAUCGGGUU [Fam2.2 aminoacylation ribozyme variant]
biotinyl-Phe-oxazolone
  self-aminoacylation: 10.7
biotinyl-Met-oxazolone
  self-aminoacylation: 2.63
biotinyl-Leu-oxazolone
  self-aminoacylation: 2.55

## AUUCACCUACGUCGUCGGGUG [Fam2.2 aminoacylation ribozyme variant]
biotinyl-Phe-oxazolone
  self-aminoacylation: 11.5
biotinyl-Leu-oxazolone
  self-aminoacylation: 2.38

## AUUCACCUAGCUCAUCGGGGG [Fam2.2 aminoacylation ribozyme variant]
biotinyl-Met-oxazolone
  self-aminoacylation: 2.42

## AUUCACCUAGCUCCUCGGGUG [Fam2.2 aminoacylation ribozyme variant]
biotinyl-Phe-oxazolone
  self-aminoacylation: 5.19
biotinyl-Leu-oxazolone
  self-aminoacylation: 2.24

## AUUCACCUAGGUCAGCGGUUG [Fam2.2 aminoacylation ribozyme variant]
biotinyl-Phe-oxazolone
  self-aminoacylation: 6.39
biotinyl-Met-oxazolone
  self-aminoacylation: 2.22

## AUUCACCUAGGUCAGCGUGUG [Fam2.2 aminoacylation ribozyme variant]
biotinyl-Phe-oxazolone
  self-aminoacylation: 11
biotinyl-Met-oxazolone
  self-aminoacylation: 2.16
biotinyl-Leu-oxazolone
  self-aminoacylation: 2.77

## AUUCACCUAGGUCAUCUGGCG [Fam2.2 aminoacylation ribozyme variant]
biotinyl-Leu-oxazolone
  self-aminoacylation: 2.88

## AUUCACCUAGGUCUUCAGGUG [Fam2.2 aminoacylation ribozyme variant]
biotinyl-Phe-oxazolone
  self-aminoacylation: 6.96
biotinyl-Met-oxazolone
  self-aminoacylation: 2.04
biotinyl-Leu-oxazolone
  self-aminoacylation: 2.02

## AUUCACCUGGGUCAUAGGGUG [Fam2.2 aminoacylation ribozyme variant]
biotinyl-Phe-oxazolone
  self-aminoacylation: 6.22
biotinyl-Leu-oxazolone
  self-aminoacylation: 2.23

## CAACGCUUCAAGCAAUCGGUC [Fam1B.1 aminoacylation ribozyme variant]
biotinyl-Phe-oxazolone
  self-aminoacylation: 58.6
biotinyl-Leu-oxazolone
  self-aminoacylation: 2.08
biotinyl-Trp-oxazolone
  self-aminoacylation: 33.7

## CCACUUCAAACAAUCGGUCGG [Fam1A.1 aminoacylation ribozyme variant]
biotinyl-Phe-oxazolone
  self-aminoacylation: 99.5
biotinyl-Leu-oxazolone
  self-aminoacylation: 2.54
biotinyl-Trp-oxazolone
  self-aminoacylation: 33.2

## CCAGACUUCAAACAAUCGGUC [Fam1B.1 aminoacylation ribozyme variant]
biotinyl-Phe-oxazolone
  self-aminoacylation: 85.8
biotinyl-Leu-oxazolone
  self-aminoacylation: 2.19
biotinyl-Trp-oxazolone
  self-aminoacylation: 40.2

## CCCCACUUCAAGUAAUCGGUC [Fam1B.1 aminoacylation ribozyme variant]
biotinyl-Phe-oxazolone
  self-aminoacylation: 15.4
biotinyl-Leu-oxazolone
  self-aminoacylation: 2.08
biotinyl-Trp-oxazolone
  self-aminoacylation: 14.2

## CCGCACUUCAAGCAAUCGGUC [Fam1B.1 aminoacylation ribozyme variant]
biotinyl-Phe-oxazolone
  self-aminoacylation: 61.6
biotinyl-Leu-oxazolone
  self-aminoacylation: 2.01
biotinyl-Trp-oxazolone
  self-aminoacylation: 36.5

## CGACACUUCACGCAAUCGGUC [Fam1B.1 aminoacylation ribozyme variant]
biotinyl-Phe-oxazolone
  self-aminoacylation: 4.13
biotinyl-Leu-oxazolone
  self-aminoacylation: 2.15

## CGACUUCAAUCAAUCGGUCUG [Fam1A.1 aminoacylation ribozyme variant]
biotinyl-Phe-oxazolone
  self-aminoacylation: 42.2
biotinyl-Leu-oxazolone
  self-aminoacylation: 2.21
biotinyl-Trp-oxazolone
  self-aminoacylation: 24.3

## CGUCUUCAAACAAUCGGUCUG [Fam1A.1 aminoacylation ribozyme variant]
biotinyl-Phe-oxazolone
  self-aminoacylation: 79
biotinyl-Leu-oxazolone
  self-aminoacylation: 2.22
biotinyl-Trp-oxazolone
  self-aminoacylation: 33.5

## CUACGUCAAACAAUCGGUGUG [Fam1A.1 aminoacylation ribozyme variant]
biotinyl-Leu-oxazolone
  self-aminoacylation: 2.02

## CUAGUUCAAACAAUCGGUCGG [Fam1A.1 aminoacylation ribozyme variant]
biotinyl-Phe-oxazolone
  self-aminoacylation: 4.12
biotinyl-Trp-oxazolone
  self-aminoacylation: 2.94

## CUAUUUCAAUCAAUCGGUCUG [Fam1A.1 aminoacylation ribozyme variant]
biotinyl-Phe-oxazolone
  self-aminoacylation: 6.36
biotinyl-Trp-oxazolone
  self-aminoacylation: 3.72

## CUCAUUCAAACAAUCGGUCUG [Fam1A.1 aminoacylation ribozyme variant]
biotinyl-Phe-oxazolone
  self-aminoacylation: 11.7
biotinyl-Trp-oxazolone
  self-aminoacylation: 7.42

## CUCCUUCAAACAAUCGGGCUG [Fam1A.1 aminoacylation ribozyme variant]
biotinyl-Phe-oxazolone
  self-aminoacylation: 15.1
biotinyl-Trp-oxazolone
  self-aminoacylation: 14.4

## CUCCUUCAAACAAUCGGUCUU [Fam1A.1 aminoacylation ribozyme variant]
biotinyl-Phe-oxazolone
  self-aminoacylation: 25.4
biotinyl-Trp-oxazolone
  self-aminoacylation: 16.3

## CUGCUCCAAACAAUCGGUCUG [Fam1A.1 aminoacylation ribozyme variant]
biotinyl-Phe-oxazolone
  self-aminoacylation: 27
biotinyl-Trp-oxazolone
  self-aminoacylation: 20.3

## CUGCUUCAAUCAAUCGGUCUG [Fam1A.1 aminoacylation ribozyme variant]
biotinyl-Phe-oxazolone
  self-aminoacylation: 44.2
biotinyl-Trp-oxazolone
  self-aminoacylation: 26.8

## GAGUUUGCUAAUAGUCGCAGG [Fam3.1 aminoacylation ribozyme variant]
biotinyl-Phe-oxazolone
  self-aminoacylation: 6.69
biotinyl-Leu-oxazolone
  self-aminoacylation: 2.11
biotinyl-Trp-oxazolone
  self-aminoacylation: 3.34

## GUACUUCAAACAAUCAGUCUG [Fam1A.1 aminoacylation ribozyme variant]
biotinyl-Phe-oxazolone
  self-aminoacylation: 19.3
biotinyl-Trp-oxazolone
  self-aminoacylation: 10.3

## GUACUUCAAACAAUCGGUCGG [Fam1A.1 aminoacylation ribozyme variant]
biotinyl-Phe-oxazolone
  self-aminoacylation: 37.8
biotinyl-Leu-oxazolone
  self-aminoacylation: 2.3
biotinyl-Trp-oxazolone
  self-aminoacylation: 15.8

## GUACUUCAAUCAAUCGGUCUG [Fam1A.1 aminoacylation ribozyme variant]
biotinyl-Phe-oxazolone
  self-aminoacylation: 21.9
biotinyl-Leu-oxazolone
  self-aminoacylation: 2.06
biotinyl-Trp-oxazolone
  self-aminoacylation: 19.4

## UAACACUUCAAGCAAUCGGUC [Fam1B.1 aminoacylation ribozyme variant]
biotinyl-Phe-oxazolone
  self-aminoacylation: 25.6
biotinyl-Trp-oxazolone
  self-aminoacylation: 13.3

## UAGUUUGCUAACAGUCGCAAG [Fam3.1 aminoacylation ribozyme variant]
biotinyl-Phe-oxazolone
  self-aminoacylation: 5.84
biotinyl-Trp-oxazolone
  self-aminoacylation: 3.08

## UCACACUUCAAGCAAUCGGCC [Fam1B.1 aminoacylation ribozyme variant]
biotinyl-Phe-oxazolone
  self-aminoacylation: 4.64
biotinyl-Trp-oxazolone
  self-aminoacylation: 4

## UUACUUCAACCAAUCGGUCUG [Fam1A.1 aminoacylation ribozyme variant]
biotinyl-Phe-oxazolone
  self-aminoacylation: 16.2
biotinyl-Trp-oxazolone
  self-aminoacylation: 11.2
